{
  "source": "patent US20210113484A1",
  "about": "(NATIONAL UNIVERSITY OF SINGAPORE, published 2021)",
  "key": {"[1]": {"test_system": "h6NE-GFPuvTEV (h6NE-GFPuv fusion with a TEV protease site between the AfFtn subunit and GFPuv) [GFP: P42212]"}, "[2]": {"target": "T1, AfFtn with truncated C-terminus and E65K, E128K, E131K, D138A, net positive interior [AfFtnΔC(+)] (Archaeoglobus fulgidus)", "T1 construct": "24 copies in the empty shell; about 23 copies where it surrounds one fusion subunit; also called tES(+)", "T1 chain": "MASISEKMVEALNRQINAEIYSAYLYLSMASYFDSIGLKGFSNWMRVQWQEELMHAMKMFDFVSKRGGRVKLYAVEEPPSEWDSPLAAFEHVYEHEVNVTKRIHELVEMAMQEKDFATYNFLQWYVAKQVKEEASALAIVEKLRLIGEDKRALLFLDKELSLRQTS", "test": "gel densitometry of purified protein fractions"}, "[3]": {"target": "T2, native GFPuv (un-fused) (UniProt P42212 1-238 = GFP)", "T2 construct": "Any tag on the un-fused protein is not described", "test": "cell-free encapsulation by pH shift 5.8 to 8; GFPuv fluorescence and thermal shift", "protocol": "(§1) FIGS. 18A-18D show effect of different molar ratios and charge of tES subunits on native GFPuv encapsulation in vitro. […] With increasing amount of GFPuv, denaturation temperature of tES(+)F116H increases. […] Negligible change in the denaturation temperature for 60:10 tES(−)F116H:GFPuv indicates unsuccessful encapsulation of GFPuv within tES(−)F116H as compared to tES(+)F116H. In 18A+ve control is tES:tES-GFPuv (0.5 μM); −ve control is GFPuv. In 18B+ve controls are tES(+)F116H:tES-GFPuv and tES(−)F116H:tES-GFPuv.\n(§2) GFP, and HRPC and rLuc activities were determined through fluorescence, colorimetric and luminescence assays, respectively, both from cell lysate and purified proteins. For GFP, fluorescence of tES(+)F116H/tES-GFPuv, tES-GFPuv, and GFPuv was read at 508 nm in a 96-well black polystyrene plate (Fisher Scientific) with excitation wavelength fixed at 395 nm was performed or fluorescence read at 508 nm in a 96-well black polystyrene plate (Fisher Scientific) using supernatant from 10-mg bacterial pellet (induced at 0.8 OD and cultured for 24h). […] Absorbance was recorded at 450 nm. […] Following chromatographic purification, equimolar concentrations (500 nM) of purified h6NE-luciferase(+), h6NEluciferase(−), and h6NE-luciferase(+/−) were evaluated for luciferase activity using D-luciferin potassium salt as a substrate."}, "[4]": {"target": "T3, native HRPC (un-fused horseradish peroxidase isoenzyme C) (horseradish, UniProt P00433 31-338)", "T3 sequence (looked up)": "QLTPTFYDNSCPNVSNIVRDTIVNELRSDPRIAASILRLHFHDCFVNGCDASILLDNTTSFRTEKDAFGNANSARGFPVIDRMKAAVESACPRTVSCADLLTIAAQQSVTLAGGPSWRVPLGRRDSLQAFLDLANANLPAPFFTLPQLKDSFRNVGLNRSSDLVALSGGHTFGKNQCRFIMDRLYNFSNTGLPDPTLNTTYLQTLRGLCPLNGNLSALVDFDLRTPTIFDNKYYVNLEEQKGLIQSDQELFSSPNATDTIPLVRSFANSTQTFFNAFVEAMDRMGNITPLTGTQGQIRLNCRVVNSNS", "test": "cell-free encapsulation by pH shift 5.8 to 8; HRPC activity and thermal shift", "protocol": "(§3) With increasing amount of HRPC, denaturation temperature of tES(+)F116H increases. […] Negligible change in the denaturation temperature for 60:10 tES(−)F116H:HRPC indicates unsuccessful encapsulation of HRPC within tES(−)F116H as compared to tES(+)F116H.\nas §2, with “24h). The activity of tES(+)F116H/tES-HRPC, tES-HRPC, and HRPC was assayed using TMB substrate in a 96-well crystal-clear polystyrene plate (Greiner Bio-One). Briefly, fractions were incubated in assay buffer containing 25 mM Tris-HCl pH-8.0, 5 mM CaCl₂, 2.5 μM hemin for 5 mins.” for “24h).”"}, "[5]": {"target": "T4, native rLuc (un-fused Renilla luciferase) (Renilla reniformis, UniProt P27652 1-311)", "T4 sequence (looked up)": "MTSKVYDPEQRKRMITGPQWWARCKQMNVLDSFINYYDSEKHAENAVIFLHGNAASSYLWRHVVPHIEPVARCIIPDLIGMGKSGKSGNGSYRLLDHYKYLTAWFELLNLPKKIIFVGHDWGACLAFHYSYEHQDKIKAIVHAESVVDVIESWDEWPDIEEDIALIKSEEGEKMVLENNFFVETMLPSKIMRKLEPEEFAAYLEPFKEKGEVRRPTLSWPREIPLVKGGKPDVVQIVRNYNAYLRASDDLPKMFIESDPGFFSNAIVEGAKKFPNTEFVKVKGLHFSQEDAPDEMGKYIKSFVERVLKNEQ", "test": "cell-free encapsulation by pH shift 5.8 to 8; rLuc luminescence", "protocol": "The TMB substrate was added for color development and the reaction stopped using 2M H₂SO₄ after 5 mins. Absorbance was recorded at 450 nm. All luciferase reactions took place at ambient temperature (24-27° C.) in a 96-well plate with white interior and were performed at least in triplicates. Following chromatographic purification, equimolar concentrations (500 nM) of purified h6NE-luciferase(+), h6NEluciferase(−), and h6NE-luciferase(+/−) were evaluated for luciferase activity using D-luciferin potassium salt as a substrate. The reaction was initiated by injecting 50μl buffer containing D-luciferin potassium salt (final concentration 200 μM), 50 mM Tris-Cl pH 7.5, 10 mM MgCl₂, 2 mM EDTA, 100 μM ATP, 0.1% BSA, to a 50μl protein sample. Purified tES(+)F116H/tES-rLuc, tES-rLuc, and rLuc were evaluated using Renilla luciferase kit (Promega) with some modifications in the manufacturer's instructions. […] The signal was integrated for 1 min with a 2 s delay and luminescence was measured in Relative Light Units (RLU). […] The steady-state initial velocities, VO, (RLU/sec) for h6NE-luciferase(+/−) and recombinant luciferase were determined by initiating the reaction with different concentration of D-luciferin potassium salt. […] All readings were recorded on a Perkin Elmer Plate reader. […]"}, "[6]": {"target": "T2, native GFPuv (un-fused)", "test": "cell-free encapsulation by pH shift 5.8 to 8; thermal shift assay", "protocol": "as §1\nInclusion body purification protocol is same as herein described. […] Fractions around the eluted peak were collected and their activity analyzed to identify fractions containing the POI."}, "[7]": {"target": "T3, native HRPC (un-fused horseradish …)", "test": "cell-free encapsulation by pH shift 5.8 to 8; SEC fractions' HRPC activity and thermal shift assay", "protocol": "as §3\nas §2, with “24h). The activity of tES(+)F116H/tES-HRPC, tES-HRPC, and HRPC was assayed using TMB substrate in a 96-well crystal-clear polystyrene plate (Greiner Bio-One). Briefly, fractions were incubated in assay buffer containing 25 mM Tris-HCl pH-8.0, 5 mM CaCl₂, 2.5 μM hemin for 5 mins.” for “24h).”"}},
  "data": [
    {"molecule": "TEVprotease (Sigma)", "values": [
      {"measurement": "TEV protease cleavage, Western blot", "setting": "[1]", "value": "the protease cleaved h6NE-GFPuvTEV"}
    ]},
    {"molecule": "h6NE-HRPC (His-tagged AfFtn subunit with truncated C-terminus fused to horseradish peroxidase isoenzyme C, C-terminal c-Myc epitope) (other, also called tES-HRPC; tES-HRP; not shown: N-terminal His-tag from pBAD/HisB) MASISEKMVEALNRQINAEIYSAYLYLSMASYFDSIGLKGFSNWMRVQWQEELMHAMKMFDFVSERGGRVKLYAVEEPPSEWDSPLAAFEHVYEHEVNVTKRIHELVEMAMQEKDFATYNFLQWYVAEQVEEEASALDIVEKLRLIGEDKRALLFLDKELSLRQTSQLTPTFYDNSCPNVSNIVRDTIVNELRSDPRIAASILRLHFHDCFVNGCDASILLDNTTSFRTEKDAFGNANSARGFPVIDRMKAAVESACPRTVSCADLLTIAAQQSVTLAGGPSWRVPLGRRDSLQAFLDLANANLPAPFFTLPQLKDSFRNVGLNRSSDLVALSGGHTFGKNQCRFIMDRLYNFSNTGLPDPTLNTTYLQTLRGLCPLNGNLSALVDFDLRTPTIFDNKYYVNLEEQKGLIQSDQELFSSPNATDTIPLVRSFANSTQTFFNAFVEAMDRMGNITPLTGTQGQIRLNCRVVNSNS", "values": [
      {"measurement": "ratio of fusion subunit to encapsulating tES subunits", "setting": "[2]", "value": "19 tES subunits per fusion subunit"}
    ]},
    {"molecule": "tES-rLuc (His-tagged AfFtn subunit with truncated C-terminus fused to Renilla luciferase) (other, also called tES-rLuc fusion subunit; not shown: N-terminal His-tag from pBAD/HisB; Renilla luciferase (rLuc), a 36 kDa protein from sea pansy, Renilla reniformis) MASISEKMVEALNRQINAEIYSAYLYLSMASYFDSIGLKGFSNWMRVQWQEELMHAMKMFDFVSERGGRVKLYAVEEPPSEWDSPLAAFEHVYEHEVNVTKRIHELVEMAMQEKDFATYNFLQWYVAEQVEEEASALDIVEKLRLIGEDKRALLFLDKELSLRQTS", "values": [
      {"measurement": "ratio of fusion subunit to encapsulating tES subunits", "setting": "[2]", "value": "20 tES subunits per fusion subunit"}
    ]},
    {"molecule": "tES(+)F116H (other, also called F116HAfFtnΔC(+); AfFtn net positive variant subunit with truncation of unstructured C-terminus and F116H mutation) MASISEKMVEALNRQINAEIYSAYLYLSMASYFDSIGLKGFSNWMRVQWQEELMHAMKMFDFVSKRGGRVKLYAVEEPPSEWDSPLAAFEHVYEHEVNVTKRIHELVEMAMQEKDHATYNFLQWYVAKQVKEEASALAIVEKLRLIGEDKRALLFLDKELSLRQTS", "values": [
      {"measurement": "binding result", "setting": "[3]", "value": "binds"},
      {"measurement": "binding result", "setting": "[4]", "value": "binds"},
      {"measurement": "binding result", "setting": "[5]", "value": "binds"}
    ]},
    {"molecule": "tES(-)F116H (other, also called AfFtn subunit with truncation of unstructured C-terminus and F116H mutation) MASISEKMVEALNRQINAEIYSAYLYLSMASYFDSIGLKGFSNWMRVQWQEELMHAMKMFDFVSERGGRVKLYAVEEPPSEWDSPLAAFEHVYEHEVNVTKRIHELVEMAMQEKDHATYNFLQWYVAEQVEEEASALDIVEKLRLIGEDKRALLFLDKELSLRQTS", "values": [
      {"measurement": "binding result", "setting": "[6]", "value": "no binding (tested: 60:10 molar ratio)"},
      {"measurement": "binding result", "setting": "[7]", "value": "no binding (tested: molar ratios of 60:8 and 60:10)"}
    ]}
  ]
}
